The experiment deals with diffusible Aβ aggregates from postmortem frontal cortex of AD patients (human (endogenous in postmortem frontal cortex)). Put plainly: single-molecule pull-down (SiMPull); soaked-brain extracts (neat) of frontal cortex of APOE4/4 and APOE3/3 AD patients; captured by biotinylated 6E10; detected with Alexa-Fluor-647 6E10 and Alexa-Fluor-488 EPR19392; two-colour TIRF, colocalisation.

For the substance “apoE4 in frontal-cortex extracts of homozygous APOE4 AD patients (from UniProt P02649 19-317) (natural protein)”, the percent of Aβ aggregates that are co-aggregates (colocalisation by number) amounted to 5%.

As to “apoE3 in frontal-cortex extracts of homozygous APOE3 AD patients (from UniProt P02649 19-317) (natural protein)”, the percent of Aβ aggregates that are co-aggregates (colocalisation by number) came out at 1%.

These data come from paper PMC11144216.
